We go through three molecules from US20260022175A1 (Chugai, published 2026).

Where a chain is given by its changes, count along the chain named. Like-named read-outs stand apart in the source and are kept apart here.

Test [1] addresses T1, human FcγRIIb extracellular domain with C-terminal His-tag (human, UniProt P31994 43-217).
T1 construct: extracellular domain; also called hFcγR IIb
T1 sequence (looked up): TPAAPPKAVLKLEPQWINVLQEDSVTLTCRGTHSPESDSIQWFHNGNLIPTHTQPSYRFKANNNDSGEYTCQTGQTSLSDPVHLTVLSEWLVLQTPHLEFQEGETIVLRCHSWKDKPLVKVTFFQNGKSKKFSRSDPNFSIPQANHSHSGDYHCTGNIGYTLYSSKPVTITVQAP
In words: SPR; binding amount divided by that of 04H1389-G1m/04L1615-k0MT. Background: SPR reads the build-up and loss of mass on a sensor chip optically.

For test [2], the target named is T1, human FcγRIIb extracellular domain with …. The experiment in a line: SPR; FcγRIIb bound amount per unit captured Ab.
The target of test [3] is T2, human FcγRIa extracellular domain with C-terminal His-tag (human, UniProt P12314 16-292).
T2 construct: extracellular domain; also called hFcγR Ia; hFcγRIa
In words: SPR; KD of 04H1389-G1m/04L1615-k0MT divided by KD of variant.

Test [4] concerns the target T3, human FcγRIIIa V allotype extracellular domain with C-terminal His-tag (human, UniProt P08637 17-208).
T3 construct: extracellular domain; also called hFcγR IIIa V
The description is as above.

Test [5] deals with T4, human FcγRIIa H allotype extracellular domain with C-terminal His-tag (human, UniProt P12318 34-217).
T4 construct: extracellular domain; also called hFcγR IIa H
T4 sequence (looked up): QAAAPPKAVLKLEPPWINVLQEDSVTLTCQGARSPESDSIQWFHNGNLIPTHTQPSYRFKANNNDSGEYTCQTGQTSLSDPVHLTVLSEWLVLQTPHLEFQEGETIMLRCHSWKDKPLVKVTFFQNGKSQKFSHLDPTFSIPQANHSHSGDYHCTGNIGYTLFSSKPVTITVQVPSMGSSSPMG
The test is described as above.

Test [6] addresses T5, human FcRn (human, UniProt P55899 24-290; P61769 21-119).
T5 construct: Prepared by the method of WO 2010/107110; also called hFcRn
The description is as above.

The target in test [7] is T6, human FcγRIIa R allotype extracellular domain with C-terminal His-tag (human, UniProt P12318 34-217).
T6 construct: extracellular domain; also called hFcγR IIa R
T6 sequence (looked up): T4 sequence (looked up) with H134R
The test is described as above.

Test [8] has as its target T5, human FcRn. In words: SPR Biacore T200, Ab captured via Fab-kappa, pH 6.0, steady state.
For test [9], the target named is T3, human FcγRIIIa V allotype extracellular …. In words: SPR Biacore T200, Ab captured via Fab-kappa, pH 7.4, 25C, steady state model.
Description: (§1) The interaction between the generated antibodies and human FcγRs was analyzed using Biacore T200. 50 mM Na-Phosphate, 150 mM NaCl, 0.05% Tween20 (pH 7.4) was used as the running buffer, and the assay was performed at 25° C. For the sensor chip, Series S SA (GE Healthcare) chips onto which CaptureSelect Human Fab-kappa Kinetics Biotin Conjugate (Thermo Fisher Scientific) was immobilized were used. The antibodies of interest were captured onto these chips and each FcγR diluted in the running buffer was allowed to interact with them. Chips were regenerated with 10 mM Glycine-HCl (pH 1.5) and 25 mM NaOH, and assay was performed by repeatedly capturing antibodies. The dissociation constants KD (mol/L) for FcγRs of each antibody were calculated using Biacore T200 Evaluation Software 2.0, and using the 1:1 Langmuir binding model for FcγRIa and FcγRIIIa and the steady state affinity model for FcγRIIa. For FcγRIIb, the binding amount of FcγRIIb per unit amount of antibody was calculated by correcting the binding amount of FcγRIIb obtained from the sensorgram obtained by the measurement with the amount of antibody captured onto the chip surface.
Test [10] deals with T2, human FcγRIa extracellular domain with …. In words: SPR Biacore T200, Ab captured via Fab-kappa, pH 7.4, 25C.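 Also: each FcγR flowed as analyte over the captured antibodies, KD derived by 1:1 Langmuir or steady-state affinity fitting depending on the receptor.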
Description: as §1
Test [11] concerns the target T4, human FcγRIIa H allotype extracellular …. The description is as above.
Description: as §1
The target in test [12] is T6, human FcγRIIa R allotype extracellular …. The description is as above.
Description: as §1
Test [13] deals with T7, human CTLA4 (human).
T7 construct: also called hCTLA4; hCTLA4-His-BAP
In words: SPR Biacore T200, 37C, antibody captured, ATP 10 uM.
Description: (§2) Biacore T200 was used to measure the binding of the generated antibodies to human CTLA4. 20 mM ACES (pH 7.4), 150 mM NaCl, 2 mM MgCl₂, 0.05% Tween 20 with ATP added to the desired concentration was used as the running buffer, and the assay was performed at 37° C. First, Protein G (CALBIOCHEM) was immobilized onto a Series S Sensor Chip CM3 (GE Healthcare), and the antibodies were captured by interacting an antibody solution prepared in an ATP-free running buffer with the chip. Next, by interacting with a human CTLA4 solution prepared in a running buffer containing ATP to the desired concentration, or a human CTLA4 solution prepared in a running buffer containing no ATP, the binding ability of the antibody to human CTLA4 in the presence or absence of ATP was evaluated. Chips were regenerated with 25 mM NaOH and 10 mM Glycine-HCl (pH 1.5), and assay was performed by repeatedly capturing antibodies. The dissociation constant of each antibody for CTLA4 was calculated using Biacore T200 Evaluation Software 2.0. Specifically, the binding rate constant ka (L/mol/s) and the dissociation rate constant kd (1/s) were calculated by global fitting of the sensorgrams obtained by the measurement, using a 1:1 Langmuir binding model. The dissociation constant KD (mol/L) was calculated from those values. Alternatively, the dissociation constant KD (mol/L) was calculated by the steady state model. In addition, the binding amount of CTLA4 per unit amount of antibody was calculated by correcting the amount of CTLA4 bound as calculated from the sensorgram obtained by the assay with the amount of antibody captured onto the chip surface.
(§3) Next, the binding ability of some variants to mouse CTLA4 and cynomolgus monkey CTLA4 was evaluated.

Test [14] concerns the target T8, mouse CTLA4 extracellular region linked with a His-tag (mCTLA4-His) (mouse, UniProt P09793 36-161). The test is described as above.
Description: as §2, §3
For test [15], the target named is T9, cynomolgus monkey CTLA4 (CyCTLA4-His-BAP) (cynomolgus monkey). Described as above.
Description: as §2, §3
The target in test [16] is T7, human CTLA4. The description is as above. The source holds these as a separate data set.
Test [17] addresses T7, human CTLA4. In words: SPR Biacore T200, 37C, antibody captured, AMP 10 uM.
Description: as §2
(§4) The binding ability of the generated variants to human CTLA4 in the presence of ADP or AMP was evaluated by Biacore T200 and compared with the binding ability in the presence of ATP.
Test [18] addresses T7, human CTLA4. In words: SPR Biacore T200, 37C, antibody captured, ATP 1 uM.
Test [19] concerns the target T8, mouse CTLA4 extracellular region linked …. In words: SPR Biacore T200, 37C, antibody captured, ATP 1 uM.
Test [20] deals with T9, cynomolgus monkey CTLA4 …. In words: SPR Biacore T200, 37C, antibody captured, ATP 1 uM.
The target of test [21] is T7, human CTLA4. The experiment in a line: SPR Biacore T200, 37C, antibody captured, ATP 10 uM. This is another data set of the same source.
Description: as §2, §4
The target of test [22] is T7, human CTLA4. The experiment in a line: SPR Biacore T200, 37C, antibody captured, ATP 100 uM.
Description: as §2, §3
For test [23], the target named is T8, mouse CTLA4 extracellular region linked …. Described as above.
Description: as §2, §3
Test [24] has as its target T9, cynomolgus monkey CTLA4 …. Described as above.
Description: as §2, §3
In test [25] the target is T7, human CTLA4. The experiment in a line: SPR Biacore T200, 37C, antibody captured, no ATP; no ATP.
Description: Biacore T200 was used to measure the binding of the generated antibodies to human CTLA4. 20 mM ACES (pH 7.4), 150 mM NaCl, 2 mM MgCl₂, 0.05% Tween 20 with ATP added to the desired concentration was used as the running buffer, and the assay was performed at 37° C. First, Protein G (CALBIOCHEM) was immobilized onto a Series S Sensor Chip CM3 (GE Healthcare), and the antibodies were captured by interacting an antibody solution prepared in an ATP-free running buffer with the chip. Next, by interacting with a human CTLA4 solution prepared in a running buffer containing ATP to the desired concentration, or a human CTLA4 solution prepared in a running buffer containing no ATP, the binding ability of the antibody to human CTLA4 in the presence or absence of ATP was evaluated. Chips were regenerated with 25 mM NaOH and 10 mM Glycine-HCl (pH 1.5), and assay was performed by repeatedly capturing antibodies. The dissociation constant of each antibody for CTLA4 was calculated using Biacore T200 Evaluation Software 2.0. Specifically, the binding rate constant ka (L/mol/s) and the dissociation rate constant kd (1/s) were calculated by global fitting of the sensorgrams obtained by the measurement, using a 1:1 Langmuir binding model. The dissociation constant KD (mol/L) was calculated from those values. Alternatively, the dissociation constant KD (mol/L) was calculated by the steady state model. […]
In test [26] the target is T7, human CTLA4. In words: SPR Biacore T200, 37C, antibody captured, ATP 1 uM. The source holds these as a separate data set.
Description: as §2
Test [27] addresses T7, human CTLA4. In words: SPR Biacore T200, 37C, antibody captured, ADP 10 uM.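 Also: antibodies held on a Protein G CM3 chip, human CTLA4 as analyte in ACES pH 7.4 buffer, rates from a global 1:1 Langmuir fit, Kd from rates or steady state.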
Description: as §2, §4
The target of test [28] is T1, human FcγRIIb extracellular domain with …. In words: SPR; binding amount divided by that of 04H1656-G1m/04L1610-lam1.
For test [29] the target is unchanged. In words: SPR; FcγRIIb bound amount per unit captured Ab. The source holds these as a separate data set.
Description: (§5) The interaction between the generated antibodies and human FcγRs was analyzed by the following method using Biacore T200. 50 mM Na-Phosphate, 150 mM NaCl, 0.05% Tween20 (pH 7.4) was used as the running buffer, and the assay was performed at 25° C. For the sensor chips, Series S SA (GE Healthcare) chips onto which CaptureSelect Human Fab-lambda Kinetics Biotin Conjugate (Thermo Fisher Scientific) was immobilized were used. The antibodies of interest were captured onto these chips and each FcγR diluted in the running buffer was allowed to interact with them. Chips were regenerated with 10 mM Glycine-HCl (pH 1.5) and 25 mM NaOH, and assay was performed by repeatedly capturing antibodies. The dissociation constants KD (mol/L) for FcγRs of each antibody were calculated using Biacore T200 Evaluation Software 2.0, using the 1:1 Langmuir binding model for FcγRIa and FcγRIIIa and the steady state affinity model for FcγRIIa. For FcγRIIb, the binding amount of FcγRIIb per unit amount of antibody was calculated by correcting the binding amount of FcγRIIb obtained from the sensorgram obtained by the measurement with the amount of antibody captured onto the chip surface.
For test [30], the target named is T3, human FcγRIIIa V allotype extracellular …. In words: SPR Biacore T200, captured Ab, pH 7.4, steady state model.
Description: as §5
Test [31] addresses T5, human FcRn. In words: SPR Biacore T200, captured Ab, pH 6.0, steady state.
Description: The interaction between the generated antibodies and human FcRn was analyzed by the following method using Biacore T200. 50 mM Na-Phosphate, 150 mM NaCl, 0.05% Tween20 (pH 6.0) was used as the running buffer, and the assay was performed at 25° C. For the sensor chip, Series S SA (GE Healthcare) chips onto which CaptureSelect Human Fab-lambda Kinetics Biotin Conjugate (Thermo Fisher Scientific) was immobilized were used. The antibodies of interest were captured onto these chips and FcRn diluted in the running buffer was allowed to interact with them. Chips were regenerated with 10 mM Glycine-HCl (pH 1.5) and 25 mM NaOH, and assay was performed by repeatedly capturing antibodies. The dissociation constant for FcRn of each antibody was calculated using the steady state model, using Biacore T200 Evaluation Software 2.0.
The target of test [32] is T10, human FcγRIIIa F allotype extracellular domain with C-terminal His-tag (human, UniProt P08637 17-208).
T10 construct: extracellular domain; also called hFcγR IIIa F
In words: SPR; KD of 04H1656-G1m/04L1610-lam1 divided by KD of variant.

Test [33] addresses T2, human FcγRIa extracellular domain with …. The description is as above.
The target in test [34] is T3, human FcγRIIIa V allotype extracellular …. The description is as above.
Test [35] concerns the target T4, human FcγRIIa H allotype extracellular …. The description is as above.
For test [36], the target named is T5, human FcRn. The description is as above.
The target of test [37] is T6, human FcγRIIa R allotype extracellular …. The description is as above.
The target in test [38] is T10, human FcγRIIIa F allotype extracellular …. In words: SPR Biacore T200, captured Ab, pH 7.4.
Description: as §5
In test [39] the target is T2, human FcγRIa extracellular domain with …. In words: SPR Biacore T200, captured Ab, pH 7.4.
Description: as §5
Test [40] concerns the target T4, human FcγRIIa H allotype extracellular …. In words: SPR Biacore T200, captured Ab, pH 7.4.
Description: as §5
Test [41] has as its target T6, human FcγRIIa R allotype extracellular …. The experiment in a line: SPR Biacore T200, captured Ab, pH 7.4.
Description: as §5

T5 sequence (P55899 24-290 limits assumed, chain 1 of 2): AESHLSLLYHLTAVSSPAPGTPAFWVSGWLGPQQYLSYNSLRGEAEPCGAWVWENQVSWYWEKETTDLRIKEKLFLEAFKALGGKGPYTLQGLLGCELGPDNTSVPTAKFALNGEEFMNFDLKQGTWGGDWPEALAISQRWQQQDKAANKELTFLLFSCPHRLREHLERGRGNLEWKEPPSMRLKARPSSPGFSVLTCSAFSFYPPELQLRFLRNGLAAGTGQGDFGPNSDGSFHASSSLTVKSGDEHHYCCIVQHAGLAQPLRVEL
T5 sequence (P61769 21-119 limits assumed, chain 2 of 2): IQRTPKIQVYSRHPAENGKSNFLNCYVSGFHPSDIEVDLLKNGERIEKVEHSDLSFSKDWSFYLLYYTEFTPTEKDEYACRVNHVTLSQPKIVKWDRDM
T7 sequence (chain, as listed by the source limits assumed): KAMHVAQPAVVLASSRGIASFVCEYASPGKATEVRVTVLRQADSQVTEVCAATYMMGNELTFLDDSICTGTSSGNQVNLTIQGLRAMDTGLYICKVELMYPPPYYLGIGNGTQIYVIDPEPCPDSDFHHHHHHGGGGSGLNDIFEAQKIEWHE
T2 sequence (P12314 16-292): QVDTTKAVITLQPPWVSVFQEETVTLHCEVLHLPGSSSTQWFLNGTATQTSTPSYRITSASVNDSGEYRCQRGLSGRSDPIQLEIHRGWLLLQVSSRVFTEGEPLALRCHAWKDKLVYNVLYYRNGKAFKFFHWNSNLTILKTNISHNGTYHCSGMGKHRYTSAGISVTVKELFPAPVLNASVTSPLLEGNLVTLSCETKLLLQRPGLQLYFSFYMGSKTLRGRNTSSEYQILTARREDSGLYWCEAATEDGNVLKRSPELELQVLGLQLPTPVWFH
T9 sequence (chain, as listed by the source limits assumed): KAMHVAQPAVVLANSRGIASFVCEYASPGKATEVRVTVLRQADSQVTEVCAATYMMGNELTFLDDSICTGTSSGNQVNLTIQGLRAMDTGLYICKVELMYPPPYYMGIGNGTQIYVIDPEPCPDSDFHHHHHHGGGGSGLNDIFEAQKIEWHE
T3 sequence (P08637 17-208 F176V): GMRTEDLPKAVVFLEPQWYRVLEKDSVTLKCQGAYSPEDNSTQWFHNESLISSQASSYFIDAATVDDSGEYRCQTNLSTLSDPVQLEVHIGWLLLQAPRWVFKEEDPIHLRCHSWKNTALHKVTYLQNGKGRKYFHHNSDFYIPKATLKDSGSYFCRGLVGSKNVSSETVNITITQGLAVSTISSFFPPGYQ
T10 sequence (P08637 17-208): as the sequence (P08637 17-208 F176V) above, with V160F counted along it

B1: 04H1389-G1m/04L1615-k0MT (antibody, human IgG1, kappa)
heavy: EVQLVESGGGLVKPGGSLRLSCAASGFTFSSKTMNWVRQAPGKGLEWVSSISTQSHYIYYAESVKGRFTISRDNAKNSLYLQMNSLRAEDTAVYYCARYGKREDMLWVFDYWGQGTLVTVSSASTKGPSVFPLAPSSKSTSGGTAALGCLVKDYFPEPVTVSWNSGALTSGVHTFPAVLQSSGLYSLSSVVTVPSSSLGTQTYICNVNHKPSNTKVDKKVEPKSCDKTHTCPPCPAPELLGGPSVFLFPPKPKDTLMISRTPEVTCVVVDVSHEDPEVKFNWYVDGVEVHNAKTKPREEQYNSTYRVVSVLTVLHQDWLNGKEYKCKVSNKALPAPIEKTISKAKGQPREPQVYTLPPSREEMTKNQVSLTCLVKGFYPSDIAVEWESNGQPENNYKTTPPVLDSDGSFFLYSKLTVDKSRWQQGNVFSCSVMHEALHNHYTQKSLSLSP
light: DIVMTQSPLSLPVTPGEPASISCQGPSTGVGDYNYVHWYQQKPGQAPRLLIYFTSKKPSGVPDRFSGSGSGTDFTLKISRVEAEDVGVYYCQTYAAPLGPMFGQGTKLEIKRTVAAPSVFIFPPSDEQLKSGTASVVCLLNNFYPREAKVQWKVDNALQSGNSQESVTEQDSKDSTYSLSSTLTLSKADYEKHKVYACEVTHQGLSSPVTKSFNRGEC
notes: Homodimer used for comparison; also called 04H1389-G1m/04L16150k0MT
The Kd is a measure of binding affinity in units of concentration. With B1, the Relative binding amount in [1] came out at 1. In test [2], this molecule came in with a Binding amount of 0.011. Further, the “Relative value to KD between G1m and hFcγRs” value in test [3], in [4], in test [5] and in [7] was 1 throughout. In addition, the “Relative value to KD between G1m and hFcRn” value in the test with human FcRn [6] stood at 1. The Kd turned out to be 1300 nM with human FcRn [8]; 910 nM in test [9]; 0.045 nM in [10]; 1100 nM in test [11]; 1500 nM in [12].

B2: 04H1654-G1m/04L1610-lam1 (antibody, human IgG1, lambda)
heavy: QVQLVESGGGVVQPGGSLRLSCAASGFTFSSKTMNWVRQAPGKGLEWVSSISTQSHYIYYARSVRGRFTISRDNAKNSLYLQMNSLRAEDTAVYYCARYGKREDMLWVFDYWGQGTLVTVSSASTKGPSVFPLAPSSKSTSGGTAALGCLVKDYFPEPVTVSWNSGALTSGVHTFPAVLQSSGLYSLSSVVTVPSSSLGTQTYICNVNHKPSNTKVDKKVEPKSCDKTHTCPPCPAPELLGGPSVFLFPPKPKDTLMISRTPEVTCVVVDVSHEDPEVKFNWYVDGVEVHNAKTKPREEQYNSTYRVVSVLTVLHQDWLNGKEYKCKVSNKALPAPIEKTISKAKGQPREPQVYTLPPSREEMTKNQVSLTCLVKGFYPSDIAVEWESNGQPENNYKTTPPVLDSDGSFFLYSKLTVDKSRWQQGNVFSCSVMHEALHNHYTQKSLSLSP
light: QSALTQPPSASGSPGQSVTISCEGPSTGVGDYNWVHWYQQHPGKAPKLMIYFTSKKPSGVPDRFSGSKSGNTASLTVSGLQAEDEADYYCQTYAAPLGPMFGGGTKLTVLGQPKAAPSVTLFPPSSEELQANKATLVCLISDFYPGAVTVAWKADSSPVKAGVETTTPSKQSNNKYAASSYLSLTPEQWKSHRSYSCQVTHEGSTVEKTVAPTECS
As a reminder, the koff is the first-order rate constant of dissociation. For orientation: kon means the second-order rate constant of association. For the molecule B2, the Kd was 15 nM with human CTLA4 [13]; 27 nM in [14]; 28 nM in test [15]; 19 nM with human CTLA4 [16]; 100 nM in the test with human CTLA4 [17]; 110 nM with human CTLA4 [18]. For the same molecule, the dissociation constant Kd in test [19] is 180 nM; in test [20], 180 nM; with human CTLA4 [21] it was 19 nM; with human CTLA4 [22] it was 4.4 nM; in test [23], 10 nM; in [24] it was 8.1 nM. Besides, the dissociation constant Kd turned out to be 5300 nM with human CTLA4 [25], 120 nM with human CTLA4 [26] and 32 nM with human CTLA4 [27]. The koff was found to be 0.0089 s⁻¹ with human CTLA4 [17], 0.0014 s⁻¹ in the test with human CTLA4 [21] and 0.0028 s⁻¹ with human CTLA4 [27]. Also, the kon with human CTLA4 [17] amounted to 89000 M⁻¹ s⁻¹; with human CTLA4 [21], 71000 M⁻¹ s⁻¹; with human CTLA4 [27] it was 88000 M⁻¹ s⁻¹.

B3: 04H1656-G1m/04L1610-lam1 (antibody, human IgG1, lambda)
heavy: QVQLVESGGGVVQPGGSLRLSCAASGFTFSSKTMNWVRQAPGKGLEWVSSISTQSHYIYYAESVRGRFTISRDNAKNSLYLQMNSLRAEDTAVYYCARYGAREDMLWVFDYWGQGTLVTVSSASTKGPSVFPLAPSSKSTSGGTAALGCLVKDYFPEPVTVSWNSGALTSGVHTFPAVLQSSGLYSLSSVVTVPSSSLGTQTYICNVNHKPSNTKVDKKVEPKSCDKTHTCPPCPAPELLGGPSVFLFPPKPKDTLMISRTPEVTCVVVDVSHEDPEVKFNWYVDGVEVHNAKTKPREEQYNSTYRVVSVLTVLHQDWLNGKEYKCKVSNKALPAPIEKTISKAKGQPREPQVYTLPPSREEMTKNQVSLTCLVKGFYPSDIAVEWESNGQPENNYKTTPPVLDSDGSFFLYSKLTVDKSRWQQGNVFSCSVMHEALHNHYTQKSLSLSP
light: B2 light
Turning to B3, in test [28], the Relative binding amount worked out at 1. In addition, in test [29], the Binding amount was found to be 0.008. The equilibrium dissociation constant (Kd) in [30] amounted to 970 nM; with human FcRn [31], 1700 nM; in test [38], 1000 nM; in test [39] it was 0.092 nM; in test [40] it was 1300 nM; in [41], 1600 nM. The “Relative value to KD between G1m and hFcγRs” value in test [32], in test [33], in test [34], in test [35] and in test [37] was 1 each time. In the test with human FcRn [36], the “Relative value to KD between G1m and hFcRn” value was 1.
